This is an account of results in the supplement of paper PMC10567573.

The labels stand for the following.
B1: ZNF263 (parent)
chain: KPYKCTLCGENFSHRSNLIRHQRI
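Note: lentivirally expressed fusions sorted by FACS into six bins by GFP to DsRed ratio, PSI derived from sequencing read proportions per bin multiplied by bin number.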

In the series the parent is B1. In words: protein stability index of a GFP-peptide fusion (GPS, HEK-293T) (PSI 1-6); higher = more stable. As to conditions: c terminus: a fixed tail appended.
Regarding KPYKCTLCLENFSHRSNLIRHQRI [G9L], the protein stability index turned out to be 1.16. Then KPYKCTLCAENFSHRSNLIRHQRI [G9A], with 2.19; and KPYKCTLCIENFSHRSNLIRHQRI [G9I], with 4. Then KPYKCTLCQENFSHRSNLIRHQRI [G9Q], with 2.79; and KPYKCTLCGENFSHRSNLIRHQRH [I24H], with 2.45. Then KPYKCTLCGENFSHRSNLIRHQRF [I24F], with 1.93; and KPYKCTLCGENFSHRSNLIRHQRY [I24Y], with 2.51; and KPYKCTLCGENFSHRSNLIRHQRW [I24W], with 2.4. In the case of KPYKCTLCGENFSHRSNLIRHQRM [I24M], the protein stability index stood at 2.74. Then KPYKCTLCGENFSHRSNLIRHQRR [I24R], with 3.16.

KPYKCTLCGENFSHRSNLIRHQRP [I24P]: the protein stability index amounted to 2.59.

Take KPYKCTLCGENFSHRSNLIRHQRV [I24V]: the protein stability index stood at 2.63. Take KPYKCTLCGENFSHRSNLIRHQRK [I24K]: the protein stability index came to 2.89.

With KPYKCTLCGENFCHRSNLIRHQRI [S13C], the protein stability index turned out to be 2.4. Then KPYKCTLCGENFGHRSNLIRHQRI [S13G], with 2.59; and KPYKCTLCGENFVHRSNLIRHQRI [S13V], with 2.39; and KPYKCTLCGENFLHRSNLIRHQRI [S13L], with 2.32. KPYKCTLCGENFHHRSNLIRHQRI [S13H]: the protein stability index amounted to 2.38. Take KPYKCTLCGENFRHRSNLIRHQRI [S13R]: the protein stability index worked out at 3.45. Then KPYKCTLCGENFMHRSNLIRHQRI [S13M], with 2.52.

Take KPYKCTLCGENFNHRSNLIRHQRI [S13N]: the protein stability index is 2.35. Then KPYKCTLCGENFDHRSNLIRHQRI [S13D], with 2.12. Then KPYKCTLCGENFAHRSNLIRHQRI [S13A], with 2.87; and KPYKCTLCGENFIHRSNLIRHQRI [S13I], with 2.67. Then KPYKCTLCGENFSHRSNLIEHQRI [R20E], with 3.12. In the case of KPYKCTLCGENFSHRSNLIQHQRI [R20Q], the protein stability index came to 2.6. Then KPYKCTLCGENFSHRSNLITHQRI [R20T], with 2.33. Then KPYKCTLCGENFSHRSNLIPHQRI [R20P], with 1.7; and KPYKCTLCGENFSHRSNLIYHQRI [R20Y], with 1.68. With KPYKCTLCGENFSHRSNLINHQRI [R20N], the protein stability index is 2.38. Then KPYKCTLCGENFSHRSNLIFHQRI [R20F], with 2.58; and KPYKCILCGENFSHRSNLIRHQRI [T6I], with 2.38. Then KPYKCNLCGENFSHRSNLIRHQRI [T6N], with 2.6; and KPYKCCLCGENFSHRSNLIRHQRI [T6C], with 2.1. Regarding KPYKCVLCGENFSHRSNLIRHQRI [T6V], the protein stability index amounted to 2.07. Then KPYKCSLCGENFSHRSNLIRHQRI [T6S], with 3.17. Then KPYKCYLCGENFSHRSNLIRHQRI [T6Y], with 1.98. Then KPYKCQLCGENFSHRSNLIRHQRI [T6Q], with 2.21. For KPYKCKLCGENFSHRSNLIRHQRI [T6K], the protein stability index came to 2.69. Take KPYKCELCGENFSHRSNLIRHQRI [T6E]: the protein stability index was 2.9. Then KPYKCLLCGENFSHRSNLIRHQRI [T6L], with 2.21. Then KPYKCHLCGENFSHRSNLIRHQRI [T6H], with 3.1; and KPYKCDLCGENFSHRSNLIRHQRI [T6D], with 2.7; and KPYKCTLCGINFSHRSNLIRHQRI [E10I], with 2.35. Then KPYKCTLCGRNFSHRSNLIRHQRI [E10R], with 2.97. For the variant KPYKCTLCGDNFSHRSNLIRHQRI [E10D], the protein stability index was 2.25. Then KPYKCTLCGHNFSHRSNLIRHQRI [E10H], with 2.71. For KPYKCTLCGPNFSHRSNLIRHQRI [E10P], the protein stability index is 2.09. Then KPYKCTLCGGNFSHRSNLIRHQRI [E10G], with 3.09.

In the case of KPYKCTLCGSNFSHRSNLIRHQRI [E10S], the protein stability index was determined as 2.61.

Regarding KPYKCTLCGENFSHRSNLIRHQPI [R23P], the protein stability index is 1.33.

Consider KPYKCTLCGENFSHRSNLIRHQHI [R23H], for which the protein stability index was 3.28. Then KPYKCTLCGENFSHRSNLIRHQEI [R23E], with 2.67.

For the variant KPYKCTLCGENFSHRSNLIRHQAI [R23A], the protein stability index was determined as 2.57. Then KPYKCTLCGENFSHRSNLIRHQYI [R23Y], with 2.57; and KPYKCTLCGENFSHRSNLIRHQVI [R23V], with 2.01; and KPYKCTLCGENFSHRSNLIRHQGI [R23G], with 2.49.

As for KPYKCTECGENFSHRSNLIRHQRI [L7E], the protein stability index came to 3.63.

As to KPYKCTPCGENFSHRSNLIRHQRI [L7P], the protein stability index was 1.69.

As to KPYKCTCCGENFSHRSNLIRHQRI [L7C], the protein stability index was 3.9.

Consider KPYKCTQCGENFSHRSNLIRHQRI [L7Q], for which the protein stability index was found to be 3.02. Then KPYKCTFCGENFSHRSNLIRHQRI [L7F], with 2.51; and KPYKCTICGENFSHRSNLIRHQRI [L7I], with 3.06. As for KPYKCTMCGENFSHRSNLIRHQRI [L7M], the protein stability index stood at 3.12. Then KPYKCTLCGENFSHRSNLTRHQRI [I19T], with 2.5; and KPYKCTLCGENFSHRSNLSRHQRI [I19S], with 1.88; and KPYKCTLCGENFSHRSNLRRHQRI [I19R], with 2.9.

For KPYKCTLCGENFSHRSNLQRHQRI [I19Q], the protein stability index was 2.44.

As to KPYKCTLCGENFSHRSNLNRHQRI [I19N], the protein stability index is 1.77. Then KPYKCTLCGENFSHRSNLYRHQRI [I19Y], with 2.3; and KPYKCTLCGENFSHRSNLFRHQRI [I19F], with 1.88; and KPYKCTLCGENPSHRSNLIRHQRI [F12P], with 1.57. Consider KPYKCTLCGENASHRSNLIRHQRI [F12A], for which the protein stability index came out at 1.97.

Regarding KPYKCTLCGENKSHRSNLIRHQRI [F12K], the protein stability index was found to be 1.58. Then KPYKCTLCGENDSHRSNLIRHQRI [F12D], with 1.28; and KPYKCTLCGENSSHRSNLIRHQRI [F12S], with 1.99; and KPYKCTLCGENVSHRSNLIRHQRI [F12V], with 3.52. Take KPYKCTLCGENFSHRSNGIRHQRI [L18G]: the protein stability index worked out at 1.98.

Turning to KPYKCTLCGENFSHRSNMIRHQRI [L18M], the protein stability index was 1.93.

As for KPYKCTLCGENFSHRSNTIRHQRI [L18T], the protein stability index came to 1.72. Then KPYKCTLCGENFSHRSNYIRHQRI [L18Y], with 2.38; and KPYKCTLCGENFSHRSNRIRHQRI [L18R], with 2.81; and KPYKCTLCGENFSHRSNWIRHQRI [L18W], with 2.19. As to KPYKCTLCGENFSHRSNEIRHQRI [L18E], the protein stability index came to 1.81.

As for KPYKCTLCGENFSHRSNSIRHQRI [L18S], the protein stability index came to 1.77. Then KPYKCTLCGENFSHRSNCIRHQRI [L18C], with 3.22; and KPYKCTLCGENFSHRSNNIRHQRI [L18N], with 2.21. Then KPYKCTLCGENFSHRSNDIRHQRI [L18D], with 1.74; and KPYKCTLGGENFSHRSNLIRHQRI [C8G], with 2.45. Then KPYKCTLLGENFSHRSNLIRHQRI [C8L], with 2.44. Regarding KPYKCTLSGENFSHRSNLIRHQRI [C8S], the protein stability index amounted to 4.1.

With KPYKCTLKGENFSHRSNLIRHQRI [C8K], the protein stability index amounted to 3.61.

As for KPYKCTLDGENFSHRSNLIRHQRI [C8D], the protein stability index was 2.62.

For KPYKCTLNGENFSHRSNLIRHQRI [C8N], the protein stability index turned out to be 2.89.
